From the domain aggregation screens of Martell et al. (2025)

Assay: soluble fraction after stress (log2 fold change); higher = more stays soluble; pooled small domains, quantitative proteomics
Conditions: stress: pH 4
Procedure, shortened: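 High-throughput quantitative proteomics was run on pooled custom libraries of small protein domains following pH 4 stress. Fold changes are on a log2 scale; higher values mean more of a domain remained soluble. The fold change in soluble amount is taken as a measure of aggregation propensity.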

Sequence | soluble fraction (log2)
HMAEPRVQEVYFEFDGKQVEAGQVVSLIEQAYKNEGHQIGRIKDLKVYINSEEGKAYYVINGDDGEGKYIE | -0.67
HMHSESAAHQRTSVELFARIPETGNLQSAQRHFDVINQFGRFPHRNKILQRPSSEQEEAFLRQPGSG | -0.0644
HMERPYNGKQMEYHEGGVEKKETLFVEGGLSRVIQWDESGQKRSEVNISPTGVRREQYWDSSGKAIAKPS | 0.0672
HMLPPVFLTIDANENVIVRKDGEPVQTLNKFELGAFARSQAENSAEQPVVLAADKSIKYEVVMEVI | -0.378
HMTPILTAQQVVAALQAAGYRNVHDLEFEHGRWEADAVNAAGQRVELHINPYTGAIERERLD | -0.0319
HMQSMSADDWSEKARVLMSAGIIVMGQEAKEKILNLKSLVPLIEAASASNVSMIDSRTFDELLMIIP | -2
HMASFTDAQALEVKDLYPDWSKIPEGTHLEAGQRVRYNGNLYKVRTGQAHDKQSTWTPTDAASLFEAID | 0.0558
HMDIRLMPGTVLTREYQGIEHRVTVAQDGQYEFEGRRYPSLSMIAREITGTRWSGPLFFGVK | 0.141
HMIENPGQTFERIAGKITRTLRTGPLRIQQLDLLFSESGEQVMDVLRAMAENGEILIKDDTIQWNGHN | -0.387
HMIAKIEGQISYVGNRFLIVDVSGVGYKLFVTNEAISLSKVEESIKLWVHTAVRENSIDLYG | 0.22
HMAMESDELETLVDQLIVDHPDEWSRFVGGDDGDRKKMQGFFTGQIMKATKGQADGRAVAQLLGQKSA | -0.337
HMPTANFPAMAEALKKQYGPPTGEEETSWTHRLGGVFDIKIQSWNTPQGEMVLRSRGAAMDAGML | 0.283
HMTKEAIAQKLRIARQESGLTQKDVSAKIGRPQQTIASWEVGRSQPDADTLYSLLLLYKVSPNTFFEYD | -0.237
HMSMVGNIEKILVTGESKKSSELLAGRTENNRVVNFTGEKVLIGSMVNVRIEEVFPNSLGGSYLPS | 0.0322
HMDKEVMEAVLRILYDDDFNPDQRDAILYFFVQELDQRTISEITGAKIGTVKKRIHDGLKKLRQKLAKEDL | -1.03
HMLGSQQAYTDALRLTGLPVDIEVIESDRLPFLIPMRYSLDQHLIEVNVRYPDTRAIRVQQMVEELFHA | -0.415
HMIPYQDPLPKGAEESLLSKYPGFEITGVHFVNDTNFIGYKVRLERGEDREEISLDVNGKFL | -0.169
HMRDLTARQQQILALIRQHIADTGFPPTRAEIAAQLGFRSPNAAEEHLKALARKGVIELASGASRGIRLK | 0.283
HMSEKYPPIDWNNIKTGQSVLIKDINQVVSLTKLPDSKGFAEVQMGLIKTKIKAEKLAATDKKPNK | -0.0179
HMNNTIKFSVDIKNSGKRLDIFLSENVTQYTRSYLKRLIENSHVKLNNKILNSPSTKVKFQDQIIINNIE | 0.0707
HMTGSLRVTSSPSGAEIYVDEIYRGYTPLTIGSLSTGRHEVRLHLSGYQDYTRTVEIESGSQSSFSVTLT | 0.0547
HMSVTPLLDATEKDKTKYRDLWLVAVVKNGVNYARKYKFGYVYAWLYRHDRDWLLQVNNQHKIPNIT | -0.107
HMQNKRQEQLLALLAERRDYMTSRQLAEILQVSDRTIRSDVEAINRRSSPPPIESNVRQGYRLNPEA | -0.0908
HMVAGHLSEKKGYYYAVLNYKDYTGKRKSKWVSTGLPVKGNKRRAEKILADIKRDFVPEEPKR | -0.0527
HMYKLTYVVDGEVYLEETVSYGSKIAAAPAPEKEGYTFSGWEGLPEVMPAKDVTVSGSFTVN | -0.0428
HMSRSKLNRLDKIKKMLIAQTGISIKEFSASLNVSEITIRRDLNLLEEQGFIRLVNGVAIYRM | -0.315
HMGELVIPPLRERTVVDAVAEAERLGFVVQVEPVASSLPEGRVLGQSPEPGTRARKSQVVVLQVSRG | 0.00536
HMNSNIIKTINDELSIRKGKYGPYIMYKTKKMKRPKFKSIGDNTPDEFLADKGSISEIILWIN | -0.452

Sequence | soluble fraction (log2)
HMAATVKVPDLTKMTPDEAQRALGQVGLKGKQGDDVDDDSVPVGYIAKQDEAPNSDAKAGDTITYHL | 0.171
HMNNPLPDLLKYFRKKKHLTQEQVAKQLSVSRASYASYETGRIIPGMQHIMELSRILEHDFLFAYTLAVQ | -0.446
HMQTLQTTSLRVSENQLFILDQQALPQEKRWLAADNVALLVDHIHTLRVRGAPLIGLSASLLLALLAGRLT | -0.764
HMNIDKLVGSTGTVVRSVTPDTAGLVRVNDEDWRASAEEILYERDAIVVEGIEGVTLIVSKLS | -1.54
HMKVKGVYQLDNGYWGYRFTMLVNGKTVSQRRVKDESGNPFKTEKKAEKARLVAMAEEQTKANK | 0.125
HMKEVVVPDYFLKQLQKNKKAFITFNNFSPSHKREYVEWITEAKTEETKNRRMKSAIEWMSEGKSRNWKYI | 0.22
HMEVHLMPGTVLLREYESNEYRVTVTPEGFYDLNGKVFKSLSAVARHITGVNWSGPRFFGVEP | -0.604
HMVADLSGVGDKDIIVDQFIYHEVLPKETIYSIVKSFNVTSEDLNKNNPFLRANGLRIGQVIRIPLKI | -0.224
HMNKDEFLRRLEDALSGEVPASVIRENLNYYADYLSQELGKGRTMDEIIEEIGEPNIVARTIINSAEAA | -0.602
HMRLMLITPTEFDEAAEIADNLKDRRAVLMNVEKTDNETARRLIDFLSGVVYALGGKIMRISAQAYVLT | -0.228
HMGTAGLSPWHKIAVLMIALGPEGASELMRHFGEDEVEQVVQAIADLKNVPSELQDAVLLEMEGALQEG | -0.796
HMTKSEWLRESREHLGLSQTDLRNLLNTALNRSYDKSRISRWENSKENIPAEVVKQIESLIATR | 0.406
HMFSWRQHLDHFGFSDEIKKRLADAVFLNDDWNEIDRGVLTKEELLARFIENDPGIEKEIYMVMENIN | -1.78
HMSKTKDVLVQLMAERGLTQSDIARALSVRPQAVQQWVSGKTRPTGKNLEALAEFLQLPPAVIVHGP | 0.344
HMLPTLSLSVKIYKGEGDIALDLEEMVKAFDQLNFGSYPFSEKGVHGTNIVIRGNDKKHMEEAEDKVRSLT | -0.959
HMKKLPEKFDYNEISGLRIEAQQKLNEFQPLNIGQASRISGVTPADISVLLVYLEQLKYSNPDLFFKLNPD | -0.743
HMSKYERVYTGSEINVNHLKSQLEDAGISSVVRNDHESAIRAGFGSDYDRGVLLFVEKDNLLRAKHIIEKT | 0.0771
HMNVWESVDLRQEQHEAKRRLILKQAALLFADRGFHETTIDQIAEALNVTKPTIYYYIESKEDLLYQVA | -0.369
HMAPELRSDAQMRRLWALAKENGLDEVGFRAFISDATGREVESTKSLTATEAHRLIEELEAP | -0.758
HMAKETLRANIKDYIQKQIASGVYRPGDRIVETQLAREMNVSQAPVREAILELVSLGLLEERPYSGHMVRQ | -0.843
HMDDATDVPYQEFRTQVTSGQVEIAQFNNNTGKISFQSTSGEKFETSGPLELSSDDERLFLENIEDFKFFT | -1.63
HMESKDIRYVQLQTVSPEEVLQALALIMPRSDVYVEPTGKLVVLHGSKETLDRAEELILALDNAV | -0.641
HMKGAADPAIKQKVLDYLDTVEKAKSKEIAKAISEEKSAVDLAVKELAFEDKVEYLYITTTFVALKGKVA | -0.865
HMKNKIYGTIVSSTSGEETVYKVFQVDSSKDITYLFRPDMIRLAHENNQALEFNEETGRGKRIEMSDLPK | -0.0332
HMVEPIKAPMPGMVLKILVEPGQQIEKGQGVLILEAMKMENVLKSSAAATVKSIKVSEKSAVEKGAILVEL | -0.261
HMADQVVGQLGMVTQRIDNLQQTGRVSANGLDWAARSENGQPIPQGMPVEVLRIEGVKLIVRPVN | -0.00119
HMRQEIIEDSRKLLEESLKRYDLTYQEFIDTLKSKNMNVESTLINIIKNQSSLDLVLRNLGLIAP | -0.869
